Measurements: publication PMC11658694, “Acetylation of the yeast Hsp40 chaperone protein Ydj1 fine-tunes proteostasis and translational fidelity” (PLOS Genetics, 2024)

What was measured:
Ssa1 (purified) [1] = biological target: T1, Ssa1 (purified) (S. cerevisiae (budding yeast), UniProt P10591 1-642); test: cell-based or functional assay
Ssa1 (purified) [2] = biological target: T1, Ssa1 (purified); test: BLI; biotinylated Ydj1 wild-type or mutant (5 μg/ml, equivalent loading) on streptavidin biosensors, Ssa1 (1 μM) in solution; Octet R4, 23°C; 25 mM Hepes pH 7.5, 50 mM KCl, 2 mM DTT, 5 mM MgCl2, 0.5 mM ATP, 0.02% Tween-20; non-specific binding subtracted; details: both partners purified

T1 sequence (P10591 whole entry): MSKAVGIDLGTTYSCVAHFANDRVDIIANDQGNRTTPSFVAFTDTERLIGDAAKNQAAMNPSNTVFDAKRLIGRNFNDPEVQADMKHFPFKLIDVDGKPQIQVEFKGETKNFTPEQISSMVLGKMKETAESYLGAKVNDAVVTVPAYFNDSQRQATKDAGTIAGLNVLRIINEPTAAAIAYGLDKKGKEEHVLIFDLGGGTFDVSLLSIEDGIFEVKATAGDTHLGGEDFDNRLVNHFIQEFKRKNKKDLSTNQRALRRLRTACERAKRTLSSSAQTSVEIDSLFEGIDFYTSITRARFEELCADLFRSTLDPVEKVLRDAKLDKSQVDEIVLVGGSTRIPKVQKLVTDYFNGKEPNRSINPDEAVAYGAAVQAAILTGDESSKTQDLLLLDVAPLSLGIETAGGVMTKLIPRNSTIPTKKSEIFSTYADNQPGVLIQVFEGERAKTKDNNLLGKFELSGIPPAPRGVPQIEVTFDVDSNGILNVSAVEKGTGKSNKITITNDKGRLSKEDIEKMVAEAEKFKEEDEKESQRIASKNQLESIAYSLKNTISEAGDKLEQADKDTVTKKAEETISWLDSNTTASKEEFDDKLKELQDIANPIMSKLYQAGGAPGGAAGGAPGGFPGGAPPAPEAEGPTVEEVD

| Binder | reactivation of chemically denatured luciferase (3 μM Ssa1, 0.3 μM Ydj1), against wild-type (Ssa1 (purified) [1]) [fold] | binding result (Ssa1 (purified) [2]) |
| --- | --- | --- |
| His-tagged Ydj1 6KR (natural protein, S. cerevisiae (budding yeast), UniProt P25491 1-409, looked up, biotin (labelled with a 1.5-fold excess of NHS-PEG4-Biotin, for BLI)) MVKETKFYDILGVPVTATDVEIRRAYRKCALRYHPDRNPSEEAAERFREASAAYEILSDPEKRDIYDQFGEDGLSGAGGAGGFPGGGFGFGDDIFSQFFGAGGAQRPRGPQRGKDIKHEISASLEELYKGRTAKLALNKQILCKECEGRGGKKGAVKKCTSCNGQGIKFVTRQMGPMIQRFQTECDVCHGTGDIIDPKDRCKSCNGKKVENERKILEVHVEPGMKDGQRIVFKGEADQAPDVIPGDVVFIVSERPHKSFKRDGDDLVYEAEIDLLTAIAGGEFALEHVSGDWLKVGIVPGEVIAPGMRKVIEGKGMPIPKYGGYGNLIIKFTIKFPENHFTSEENLKKLEEILPPRIVPAIPKKATVDECVLADFDPAKYNRTRASRGGANYDSDEEEQGGEGVQCASQ | ~2 | – |
| His-tagged Ydj1 K23R (natural protein, S. cerevisiae (budding yeast), UniProt P25491 1-409, looked up, biotin (labelled with a 1.5-fold excess of NHS-PEG4-Biotin, for BLI), Ydj1, yeast Hsp40; Tag end: see m28; source: E. coli Rosetta (DE3), purified (Ni-sepharose, Superdex 200); not shown: His6, N-terminal, kept) MVKETKFYDILGVPVTATDVEIRKAYRKCALKYHPDKNPSEEAAEKFKEASAAYEILSDPEKRDIYDQFGEDGLSGAGGAGGFPGGGFGFGDDIFSQFFGAGGAQRPRGPQRGKDIKHEISASLEELYKGRTAKLALNKQILCKECEGRGGKKGAVKKCTSCNGQGIKFVTRQMGPMIQRFQTECDVCHGTGDIIDPKDRCKSCNGKKVENERKILEVHVEPGMKDGQRIVFKGEADQAPDVIPGDVVFIVSERPHKSFKRDGDDLVYEAEIDLLTAIAGGEFALEHVSGDWLKVGIVPGEVIAPGMRKVIEGKGMPIPKYGGYGNLIIKFTIKFPENHFTSEENLKKLEEILPPRIVPAIPKKATVDECVLADFDPAKYNRTRASRGGANYDSDEEEQGGEGVQCASQ | – | binds |
| His-tagged Ydj1 K37R (natural protein, S. cerevisiae (budding yeast), UniProt P25491 1-409, looked up, biotin (labelled with a 1.5-fold excess of NHS-PEG4-Biotin, for BLI)) MVKETKFYDILGVPVTATDVEIKKAYRKCALKYHPDRNPSEEAAEKFKEASAAYEILSDPEKRDIYDQFGEDGLSGAGGAGGFPGGGFGFGDDIFSQFFGAGGAQRPRGPQRGKDIKHEISASLEELYKGRTAKLALNKQILCKECEGRGGKKGAVKKCTSCNGQGIKFVTRQMGPMIQRFQTECDVCHGTGDIIDPKDRCKSCNGKKVENERKILEVHVEPGMKDGQRIVFKGEADQAPDVIPGDVVFIVSERPHKSFKRDGDDLVYEAEIDLLTAIAGGEFALEHVSGDWLKVGIVPGEVIAPGMRKVIEGKGMPIPKYGGYGNLIIKFTIKFPENHFTSEENLKKLEEILPPRIVPAIPKKATVDECVLADFDPAKYNRTRASRGGANYDSDEEEQGGEGVQCASQ | ~2 | – |

Results, then the binder that gave them:

| reactivation of chemically denatured luciferase (3 μM Ssa1, 0.3 μM Ydj1), against wild-type (Ssa1 (purified) [1]) [fold] | binding result (Ssa1 (purified) [2]) | Binder |
| --- | --- | --- |
| – | binds | His-tagged Ydj1 K23Q (natural protein, S. cerevisiae (budding yeast), UniProt P25491 1-409, looked up, biotin (labelled with a 1.5-fold excess of NHS-PEG4-Biotin, for BLI), Ydj1, yeast Hsp40; Tag end: see m28; source: E. coli Rosetta (DE3), purified (Ni-sepharose, Superdex 200); not shown: His6, N-terminal, kept) MVKETKFYDILGVPVTATDVEIQKAYRKCALKYHPDKNPSEEAAEKFKEASAAYEILSDPEKRDIYDQFGEDGLSGAGGAGGFPGGGFGFGDDIFSQFFGAGGAQRPRGPQRGKDIKHEISASLEELYKGRTAKLALNKQILCKECEGRGGKKGAVKKCTSCNGQGIKFVTRQMGPMIQRFQTECDVCHGTGDIIDPKDRCKSCNGKKVENERKILEVHVEPGMKDGQRIVFKGEADQAPDVIPGDVVFIVSERPHKSFKRDGDDLVYEAEIDLLTAIAGGEFALEHVSGDWLKVGIVPGEVIAPGMRKVIEGKGMPIPKYGGYGNLIIKFTIKFPENHFTSEENLKKLEEILPPRIVPAIPKKATVDECVLADFDPAKYNRTRASRGGANYDSDEEEQGGEGVQCASQ |
| – | binds | His-tagged Ydj1 wild-type (natural protein, S. cerevisiae (budding yeast), UniProt P25491 1-409, looked up, biotin (labelled with a 1.5-fold excess of NHS-PEG4-Biotin, for BLI), Ydj1, yeast Hsp40; YDJ1 gene amplified from yeast genomic DNA, in pRSETA; Methods: 6xHIS-TEV-Ydj1 fusion; A TEV site lies between tag and Ydj1; A fragment lacking the J-domain co-purifies; also called HIS-Ydj1; Ydj1-biotin; source: E. coli Rosetta (DE3), purified (Ni-sepharose, Superdex 200); not shown: His6, N-terminal, kept) MVKETKFYDILGVPVTATDVEIKKAYRKCALKYHPDKNPSEEAAEKFKEASAAYEILSDPEKRDIYDQFGEDGLSGAGGAGGFPGGGFGFGDDIFSQFFGAGGAQRPRGPQRGKDIKHEISASLEELYKGRTAKLALNKQILCKECEGRGGKKGAVKKCTSCNGQGIKFVTRQMGPMIQRFQTECDVCHGTGDIIDPKDRCKSCNGKKVENERKILEVHVEPGMKDGQRIVFKGEADQAPDVIPGDVVFIVSERPHKSFKRDGDDLVYEAEIDLLTAIAGGEFALEHVSGDWLKVGIVPGEVIAPGMRKVIEGKGMPIPKYGGYGNLIIKFTIKFPENHFTSEENLKKLEEILPPRIVPAIPKKATVDECVLADFDPAKYNRTRASRGGANYDSDEEEQGGEGVQCASQ |
